The values that follow come from paper PMC4854210, “IL-27 Promotes Proliferation of Human Leukemic Cell Lines Through the MAPK/ERK Signaling Pathway and Suppresses Sensitivity to Chemotherapeutic Drugs” (Journal of Interferon & Cytokine Research, 2016).

The target of assay [1] is T1, Recombinant human IL27Rα-Fc chimera (human, UniProt Q6UWB1 33-516).
T1 construct: IL-27 receptor subunit alpha (IL-27Rα, WSX-1, TCCR), human; Captured on the chip by anti-human IgG-Fc antibodies; also called IL-27Rα-Fc fusion protein; IL-27R-Fc fusion protein; source: bought: R & D Systems
T1 sequence (looked up): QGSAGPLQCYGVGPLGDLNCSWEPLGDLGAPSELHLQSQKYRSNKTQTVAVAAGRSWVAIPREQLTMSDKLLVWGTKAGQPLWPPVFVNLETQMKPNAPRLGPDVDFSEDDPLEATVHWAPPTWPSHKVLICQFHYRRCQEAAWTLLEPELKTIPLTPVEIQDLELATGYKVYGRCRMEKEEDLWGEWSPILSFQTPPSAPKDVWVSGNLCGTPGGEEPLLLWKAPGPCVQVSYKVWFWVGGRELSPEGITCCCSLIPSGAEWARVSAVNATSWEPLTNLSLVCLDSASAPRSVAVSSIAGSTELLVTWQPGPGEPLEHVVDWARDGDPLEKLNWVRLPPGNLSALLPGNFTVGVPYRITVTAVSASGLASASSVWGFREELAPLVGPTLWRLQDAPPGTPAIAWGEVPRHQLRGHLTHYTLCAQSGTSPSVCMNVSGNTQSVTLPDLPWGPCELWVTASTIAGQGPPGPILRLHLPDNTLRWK
The assay can be described thus: SPR; IL-27Rα-Fc or gp130-Fc captured on mouse anti-human IgG-Fc antibodies amine-coupled to a CM5 chip; IL-27 injected at increasing concentrations (multicycle), 30 μL/min; BIAcore T100, 25°C, HBS-EP+; double referenced; global fit, 1:1 Langmuir model; KD = kd/ka. To be noted: both partners purified. On the technique in general: Surface plasmon resonance follows binding to a sensor surface in real time, without labels.

For assay [2], the target named is T2, Recombinant human gp130-Fc chimera (human, UniProt P40189-1 23-619).
T2 construct: gp130 (interleukin-6 receptor subunit beta), human; Captured on the chip by anti-human IgG-Fc antibodies; also called gp130-Fc fusion protein; source: bought: R & D Systems
T2 sequence (looked up): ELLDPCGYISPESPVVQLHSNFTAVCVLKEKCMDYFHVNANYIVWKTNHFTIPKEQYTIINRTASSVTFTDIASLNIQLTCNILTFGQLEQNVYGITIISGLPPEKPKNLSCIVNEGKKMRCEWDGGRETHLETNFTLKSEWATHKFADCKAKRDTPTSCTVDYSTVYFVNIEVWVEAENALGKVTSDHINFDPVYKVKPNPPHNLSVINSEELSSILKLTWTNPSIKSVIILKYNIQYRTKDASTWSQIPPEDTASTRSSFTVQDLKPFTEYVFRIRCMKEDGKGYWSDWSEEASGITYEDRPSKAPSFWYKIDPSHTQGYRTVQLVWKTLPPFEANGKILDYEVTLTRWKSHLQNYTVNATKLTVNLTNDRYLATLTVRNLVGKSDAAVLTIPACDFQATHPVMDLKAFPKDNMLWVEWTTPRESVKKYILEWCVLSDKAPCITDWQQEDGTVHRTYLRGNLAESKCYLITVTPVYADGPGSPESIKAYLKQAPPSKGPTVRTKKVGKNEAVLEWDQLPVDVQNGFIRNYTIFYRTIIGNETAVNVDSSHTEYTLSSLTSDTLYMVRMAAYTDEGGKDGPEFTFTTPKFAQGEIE
The assay is described as above. To be noted: both partners purified.

B1: Recombinant human IL-27 (ligand)
chain 1: FPRPPGRPQLSLQELRREFTVSLHLARKLLSEVRGQAHRFAESHLPGVNLYLLPLGEQLPDVSLTFQAWRRLSDPERLCFISTTLQPFHALLGGLGTQGRWTNMERMQLWAMRLDLRDLQRHLRFQVLAAGFNLPEEEEEEEEEEEEERKGLLPGALGSALQGPAQVSWPQLLSTYRLLHSLELVLSRAVRELLLLSKAGHSVWPLGFPTLSPQP
chain 2: RKGPPAALTLPRVQCRASRYPIAVDCSWTLPPAPNSTSPVSFIATYRLGMAARGHSWPCLQQTPTSTSCTITDVQLFSMAPYVLNVTAVHPWGSSSSFVPFITEHIIKPDPPEGVRLSPLAERQLQVQWEPPGSWPFPEIFSLKYWIRYKRQGAARFHRVGPIEATSFILRAVRPRARYYVQVAAQDLTDYGELSDWSLPATATMSLGK
notes: IL-27 subunit p28 (cytokine subunit of the heterodimeric IL-27), human; Epstein-Barr virus-induced gene 3 (EBI3), the soluble cytokine receptor subunit of IL-27, human; also called interleukin-27; source: bought: R & D Systems
What is called Kd is the free concentration of one partner at which half of the binding sites on the other are occupied at equilibrium, for simple one-to-one binding. As a reminder, the koff is a measure of how fast the partners let go of each other. Broadly, the kon is a measure of how fast the partners come together. For the molecule B1, in assay [1], the Kd was 0.0457 nM, the koff was 0.00414 s⁻¹ and the kon was determined as 9.08e+07 M⁻¹ s⁻¹. Also, in assay [2], the Kd came out at 2.74 nM and the koff came out at 456 s⁻¹.
